These are literature values, as cited in article PMC2739727.

Series [1] concerns the target IL-13Rα1/IL-4Rα (Homo sapiens) (UniProt P78552).
Another series addresses IL-13Rα2 (Homo sapiens) (UniProt Q14627).
UniProt Q14627, sequence (Q14627 27-343): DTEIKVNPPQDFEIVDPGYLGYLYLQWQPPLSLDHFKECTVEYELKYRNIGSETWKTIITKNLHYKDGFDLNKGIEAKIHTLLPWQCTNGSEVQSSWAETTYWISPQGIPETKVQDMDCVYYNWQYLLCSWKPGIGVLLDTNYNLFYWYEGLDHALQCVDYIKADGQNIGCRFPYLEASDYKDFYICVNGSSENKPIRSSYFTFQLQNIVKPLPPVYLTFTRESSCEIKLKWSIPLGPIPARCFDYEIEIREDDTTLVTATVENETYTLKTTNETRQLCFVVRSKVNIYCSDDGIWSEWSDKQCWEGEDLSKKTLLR

UniProt P78552, sequence (P78552 22-343, chain 1 of 2): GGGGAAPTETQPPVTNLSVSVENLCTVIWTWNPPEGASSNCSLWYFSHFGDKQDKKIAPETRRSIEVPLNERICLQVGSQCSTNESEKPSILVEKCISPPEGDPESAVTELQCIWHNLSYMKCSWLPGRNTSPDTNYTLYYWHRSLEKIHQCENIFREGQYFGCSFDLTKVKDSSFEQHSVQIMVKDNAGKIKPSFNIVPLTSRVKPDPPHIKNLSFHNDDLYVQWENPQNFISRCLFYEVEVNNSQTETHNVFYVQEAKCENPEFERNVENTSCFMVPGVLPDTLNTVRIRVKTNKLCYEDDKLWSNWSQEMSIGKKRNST
UniProt P78552, sequence (P24394 26-232, chain 2 of 2, further chain): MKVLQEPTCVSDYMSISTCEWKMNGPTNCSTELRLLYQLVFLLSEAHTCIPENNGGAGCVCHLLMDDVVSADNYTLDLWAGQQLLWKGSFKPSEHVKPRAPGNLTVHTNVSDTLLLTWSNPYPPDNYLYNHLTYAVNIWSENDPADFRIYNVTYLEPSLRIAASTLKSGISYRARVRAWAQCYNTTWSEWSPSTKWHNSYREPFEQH

On to IL-13 (from UniProt P35225), for which the Kd (in series [1]; with IL-13Rα2 (Homo sapiens)) was 0.2 nM each time.
